The record followed here is patent publication US20230121197A1, “ANTIBODIES SPECIFICALLY BINDING THE CARBOXYMETHYLATED CATALYTIC SUBUNIT OF PROTEIN PHOSPHATASE 2A” (Medizinische Universität Wien, priority 2020, published 2023).

This test has as its target T1, C-terminal PP2Ac peptide Y307F, CGEPHVTRRTPDFFL (15-mer).
T1 construct: Non-carboxymethylated; Phe in place of Tyr307; Crosslinked to BSA in the Western blot; free or linked to BSA in the ELISA
T1 peptide: CGEPHVTRRTPDFFL
The experiment in a line: Western blot of 100 ng BSA crosslinked with peptide. As for the experimental part: 100 ng of BSA crosslinked with peptides (L309: […] (SEQ ID NO:49), Y307F: […] (SEQ ID NO.50), pY307: […]pYFL (SEQ ID NO:51) or meL309: […]-CH₃) (SEQ ID NO:49) was separated by 10% SDS-PAGE and transferred to nitrocellulose membrane (0.2 μm, GE Healthcare). […] The membranes were blocked in 3% non-fatty dry milk (NFDM) in TBS-Tween for 1 h at RT and incubated with single clone hybridoma cell culture supernatant, clone 7C10-C5 diluted 1:100 in 0.5% NFDM in TBS-T (7C10 X63), recombinant single chain variable fragment of antibody 7C10-C5, undiluted (7C10 scFvs), recombinant bivalent single chain variable fragment 7C10-C5, undiluted (7C10 bi-scFvs) or single clone hybridoma cell culture supernatant, clone 1D7 (binding to non-carboxymethylated PP2Ac) 1:100 in 0.5% NFDM in TBS-T o/n at 4° C. After washing 3×5 min in TBS-T, blots incubated with recombinant antibodies were incubated with mouse anti-HA monoclonal antibody 16B12 (recognizing the hemagglutinin (HA) tag on the recombinant antibody), 1:10000 in 0.5% NFDM in TBS-T 2 h at room temperature. After washing 3×5 min in TBS-T, incubation with anti-mouse-HRP coupled secondary antibody for 1 h at RT and 3×10 min washes in TBS-T was performed. ECL was performed with GE Healthcare ECL reagents (RPN2106) mixed 1:3 with Clarity™ Western ECL Substrate, 500 ml #1705061 (Biorad). Signals were detected by exposure of X-ray films. […]
A general note: A western blot detects proteins with antibodies after separation by electrophoresis.

B1: 7C10-C5 monoclonal antibody (antibody, V domains shown)
VH: DVQLQESGPGLVKPSQSLSLTCSVTGYSITSGYYWNWIRQFPGNKLEWMGYISYDGSNNYNPSLKNRISITRDTSKNQFFLKLNSVTTEDTATYYCAGRFAYWGQGTLVTVSA
VL: DVLMTQTPLSLPVSLGDQASISCRSSQSIVHSNGNTYLEWYLQKPGQSPKLLIYKVSNRFSGVPDRFSGSGSGTDFTLKINRVEAEDLGVYYCFQGSHVPWTFGGGTKLEIK
notes: Used as hybridoma culture supernatant (ELISA, Western blot, IHC) or at 50 µg/mL (SPR); also called 7C10 X63; clone 7C10-C5
For the molecule B1, the binding result is “no binding (tested: supernatant 1:100)”.
